Publication PMC3307893

Target: Anaphase-Promoting Complex/Cyclosome (APC), Xenopus, immunoprecipitated on Cdc27 antibody beads (Xenopus (endogenous in egg extract))
Test: pull-down

- percent of the deubiquitinated Cdc20 bound to the APC: 47%
Substance: double HA-tagged human Cdc20, wild type (from UniProt Q12834 1-499) (natural protein)
